From paper PMC12494293, “Hexokinase 2 is an RNA-binding protein that regulates mRNA translation independently of glycolysis and induces melanoma cell proliferation”

Biological target: T1, HK2 Δ16 (UniProt P52789 17-917, del1-16)
T1 sequence: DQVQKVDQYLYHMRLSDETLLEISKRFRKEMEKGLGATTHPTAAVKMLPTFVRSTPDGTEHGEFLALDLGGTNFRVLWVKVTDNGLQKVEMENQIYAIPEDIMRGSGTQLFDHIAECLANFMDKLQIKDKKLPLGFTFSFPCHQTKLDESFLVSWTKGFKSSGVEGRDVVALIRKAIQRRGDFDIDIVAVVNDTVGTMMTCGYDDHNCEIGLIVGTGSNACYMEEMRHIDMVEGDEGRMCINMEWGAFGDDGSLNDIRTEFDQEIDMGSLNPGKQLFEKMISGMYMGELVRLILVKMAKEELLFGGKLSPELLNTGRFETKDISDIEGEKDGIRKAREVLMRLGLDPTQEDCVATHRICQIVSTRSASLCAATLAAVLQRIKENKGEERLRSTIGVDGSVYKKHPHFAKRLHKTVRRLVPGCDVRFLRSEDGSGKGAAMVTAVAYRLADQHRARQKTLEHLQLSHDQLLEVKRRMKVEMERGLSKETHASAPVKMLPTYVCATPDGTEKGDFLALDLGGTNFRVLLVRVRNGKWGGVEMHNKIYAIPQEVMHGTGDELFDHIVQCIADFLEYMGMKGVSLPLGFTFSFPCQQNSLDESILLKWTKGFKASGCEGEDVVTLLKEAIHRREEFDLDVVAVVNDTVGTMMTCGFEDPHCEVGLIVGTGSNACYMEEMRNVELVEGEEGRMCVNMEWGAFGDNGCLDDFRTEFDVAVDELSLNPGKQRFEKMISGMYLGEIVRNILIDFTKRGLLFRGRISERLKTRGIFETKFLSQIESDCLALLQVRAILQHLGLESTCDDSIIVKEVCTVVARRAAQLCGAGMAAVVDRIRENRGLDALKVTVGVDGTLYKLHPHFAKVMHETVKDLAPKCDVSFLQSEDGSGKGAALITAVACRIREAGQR
Experiment: competition; 5 µM HK2 Δ16, 25 nM ATTO700 SOX10 SL; almost complete competition; 10 mM Tris-HCl pH 7.5, 1 mM EDTA, 100 mM KCl, 0.1 mM DTT, 5% glycerol, 0.01 mg/mL BSA, 0.125 mg/mL yeast tRNA, 20°C; gel at 4°C
Settings: protein: recombinant; (pET28b, Ni-NTA); hairpin

Does AGGACGAGCCCCAGACUGGAGGAGAGGUCC (structured_RNA) [SOX10 SL (unlabeled)] bind?
Result: binds
